# Test results as given in the Human Domainome abundance scans (Beltran et al. 2025).
# ± gives the uncertainty stated by the source.
# B1: Ankyrin-2, residues 3571 to 3650; numbered along this chain, Q01484 (parent)
# chain: ERLAYIADHLGFSWTELARELDFTEEQIHQIRIENPNSLQDQSHALLKYWLERDGKHATDTNLVECLTKINRMDIVHLME
# Variants of: B1
# Assay: abundance fitness (aPCA) (normalised: wild type 0, dead -1); higher = more abundant; growth selection in yeast, the domain comes from the species named
# Details: Homo sapiens
row,Variant,abundance fitness
1,ERLAYIADTLGFSWTELARELDFTEEQIHQIRIENPNSLQDQSHALLKYWLERDGKHATDTNLVECLTKINRMDIVHLME [H9T],-0.33 ± 0.24
2,ERLAYIADHLGFSWTNLARELDFTEEQIHQIRIENPNSLQDQSHALLKYWLERDGKHATDTNLVECLTKINRMDIVHLME [E16N],0.026 ± 0.17
3,ERLAYIADHLGFSWTELARELDFTEEQIHQIRIENPNSLQDQSHALLKYWLERDGKHATDTNLVWCLTKINRMDIVHLME [E65W],-0.246 ± 0.075
4,ERLAYIADHLGFSWTELARELDFTEEQIHQIRIENENSLQDQSHALLKYWLERDGKHATDTNLVECLTKINRMDIVHLME [P36E],-0.044 ± 0.23
5,ERLAYIADHLGFSWTELARELDFTEEQIHQIRIENCNSLQDQSHALLKYWLERDGKHATDTNLVECLTKINRMDIVHLME [P36C],-0.123 ± 0.1
6,ERLAYIADHLGFSWTELARELDFTEEQIHQIRIENPNSLQDQSHALLKYWLERDGKHQTDTNLVECLTKINRMDIVHLME [A58Q],0.039 ± 0.093
7,ERLAYIADHLGGSWTELARELDFTEEQIHQIRIENPNSLQDQSHALLKYWLERDGKHATDTNLVECLTKINRMDIVHLME [F12G],0.005 ± 0.068
8,ERLAYIADHLGWSWTELARELDFTEEQIHQIRIENPNSLQDQSHALLKYWLERDGKHATDTNLVECLTKINRMDIVHLME [F12W],0.005 ± 0.092
9,ERLAYIADHLGFSWTELARELDFTEEQIHQIRIENPNSLQDQSHALLKYWLERDGKNATDTNLVECLTKINRMDIVHLME [H57N],-0.002 ± 0.13
10,ERLAYIADHLGFSWTELARELDFTEEQIHQIRIENPNSLQDQSHALLKYWLEPDGKHATDTNLVECLTKINRMDIVHLME [R53P],-0.216 ± 0.055
11,ERLAYIADHLGFSWTELAAELDFTEEQIHQIRIENPNSLQDQSHALLKYWLERDGKHATDTNLVECLTKINRMDIVHLME [R19A],-0.076 ± 0.091
12,ERLAYIADHLGFSWTELARELDFTEEQIHQIRIENPNSLQDQSHALLKYWLERDGKHATDTNLVEMLTKINRMDIVHLME [C66M],0.009 ± 0.099
13,ERLAYIADHLGFSWFELARELDFTEEQIHQIRIENPNSLQDQSHALLKYWLERDGKHATDTNLVECLTKINRMDIVHLME [T15F],-0.277 ± 0.12
14,ERLAYIADHLGFSWTELARELDFTEEQIHQIRIENPNSLQDQSHALLKYWLERDGKHAGDTNLVECLTKINRMDIVHLME [T59G],-0.088 ± 0.05
15,ERLAYIADHLGFSWTELARELDFTEEQIHQIRIENPNSLQDQSHALLKYWLERDGKHAADTNLVECLTKINRMDIVHLME [T59A],-0.035 ± 0.059
16,ERLAYIADHLGFSWTELARELDFTEEEIHQIRIENPNSLQDQSHALLKYWLERDGKHATDTNLVECLTKINRMDIVHLME [Q27E],0.007 ± 0.071
17,ERLAYIADHLGFSWTELARELDFTEEVIHQIRIENPNSLQDQSHALLKYWLERDGKHATDTNLVECLTKINRMDIVHLME [Q27V],-0.042 ± 0.051
18,ERLAYIADHLGFSWTELARELDFTEETIHQIRIENPNSLQDQSHALLKYWLERDGKHATDTNLVECLTKINRMDIVHLME [Q27T],0.1 ± 0.12

row,Variant,abundance fitness
1,ERLAYIADHLGFSWTELARELDFTEEQIHQNRIENPNSLQDQSHALLKYWLERDGKHATDTNLVECLTKINRMDIVHLME [I31N],-0.242 ± 0.25
2,ERLAYIADHLGFSWTELARELDFTEEQIHQVRIENPNSLQDQSHALLKYWLERDGKHATDTNLVECLTKINRMDIVHLME [I31V],-0.057 ± 0.07
3,ERLAYIADHLGFSWTELARELDFTEEQIHQWRIENPNSLQDQSHALLKYWLERDGKHATDTNLVECLTKINRMDIVHLME [I31W],-0.336 ± 0.085
4,ERLAYIADHLGFSWTELARELDFTAEQIHQIRIENPNSLQDQSHALLKYWLERDGKHATDTNLVECLTKINRMDIVHLME [E25A],-0.006 ± 0.054
5,ERLAYIADHLGFSWTELARELDFTEEQIHQIRIENPNSLQDQSHALLKYWLERDGKHATNTNLVECLTKINRMDIVHLME [D60N],-0.375 ± 0.2
6,ERLAYIADHLGFSWTELARELDFTEEQIHQIRIENPNSLQDQSHALLKYWLERDGKHATITNLVECLTKINRMDIVHLME [D60I],-0.104 ± 0.12
7,ERLAYIADHLGFSWTELARELDFTEEQIHQIRIENPNELQDQSHALLKYWLERDGKHATDTNLVECLTKINRMDIVHLME [S38E],-0.092 ± 0.11
8,ERLAYIADHLGFSWTELARELDFTEEQIHQIRIENPNPLQDQSHALLKYWLERDGKHATDTNLVECLTKINRMDIVHLME [S38P],-0.832 ± 0.089
9,ERLAYIADHLGFSWTELARELDFTEEQIHQIRIENPNHLQDQSHALLKYWLERDGKHATDTNLVECLTKINRMDIVHLME [S38H],-0.14 ± 0.14
10,ERLAYIADHLGFSWTELARELDFTEEQIHQIRIENPNSLQDQSHALLKYWLERDGKHATDTNLVECLTKINRGDIVHLME [M73G],-0.165 ± 0.31
11,ERLAYIADHLYFSWTELARELDFTEEQIHQIRIENPNSLQDQSHALLKYWLERDGKHATDTNLVECLTKINRMDIVHLME [G11Y],-0.123 ± 0.18
12,ERLAYIADHLAFSWTELARELDFTEEQIHQIRIENPNSLQDQSHALLKYWLERDGKHATDTNLVECLTKINRMDIVHLME [G11A],-0.058 ± 0.064
13,ERLAYIADHLGFSWTELARELDFTEEQIHQIRIENPNSLQDQSHALLKYWLERDGKHATDTNLVECLTKINRMQIVHLME [D74Q],-0.435 ± 0.18
14,ERLAYIADHLGFSWTELARELDFTEEQIHQIRIENPNSLQDQSHALLKYWLERDGKHATDTNLVECLTKIDRMDIVHLME [N71D],-0.054 ± 0.17
15,ERLAYIADHLGFSWTELARELDFTEEQIHQIRIENPNSLQDQSHALLKYWLERDGKHATDTNLVECLTKICRMDIVHLME [N71C],-0.064 ± 0.14
16,ERLAYIADHLGFSWTELARELDFTEEQIHQIRIENPNSLQDQSHALLKYWLERDGKHATDTNLVECLTKINRMDSVHLME [I75S],-0.54 ± 0.45
17,ERLAYIADHLGFSWTELARELDFTEEQIHFIRIENPNSLQDQSHALLKYWLERDGKHATDTNLVECLTKINRMDIVHLME [Q30F],-0.023 ± 0.1
